Earlier results, collected in publication PMC11271873.

How the values were obtained:
Settings in all cases: free peptide
[1] = tested on: Nterm (position 1, -----KK----)
[2] = tested on: Cterm (position 2, ----KK-----)
[3] = tested on: Nterm (position 1, -----KKK---)
[4] = tested on: Cterm (position 3, ---KKK-----)

Row | Substance | pKa [1] | pKa [2] | pKa [3] | pKa [4]
1 | Lys-Lys (di-lysine) (synthetic) | 7,53 | 3,01 | – | –
2 | Lys-Lys-Lys (tri-lysine) (synthetic) | – | – | 7,34 | 3,08
